Test results taken from patent publication US20260116960A1 (SHANGHAI HONGCHENG BIOPHARMACEUTICAL, published 2026).

Columns and labels:
[1] = molecular target: T1, human VEGF165-his protein (Acro, Catalog No. VE5-H5248) (human, UniProt P15692-4 27-191); assay: ELISA, plate coated with human VEGF165-his
T1 construct: Bought protein; also called hVEGF165-His; VEGFA; not shown: his tag
Procedure: (§1) ELISA was used to determine the activity of the trispecific antibodies binding to the PD-1 protein: 1 μg/mL human PD-1 protein (Acro, Catalog No.: PD1-H5221) was used to coat a high-adsorption 96-well ELISA plate and incubated at 4° C. overnight. On the next day, the plate was washed three times with PBST solution and blocked with 1% BSA-PBS solution at 37° C. for 1 hour. At the same time, 3-fold gradient dilutions of the antibody were prepared with 1% BSA-PBS solution, with a starting concentration of 10 nM. The antibodies of each gradient concentration were added to the blocked 96-well ELISA plate at 100 µL/well in triplicate and incubated at 37° C. for 1 hour. The plate was then washed three times with 0.05% PBST solution, and 100 μL/well of HRP-labeled secondary antibody (Sigma, Catalog No.: A0170) diluted at 1:5000 was added to the ELISA plate and incubated at 37° C. for 1 hour. The plate was washed three times with 0.05% PBST solution and developed with TMB. The absorbance of the 96-well ELISA plate at 450 nm was detected by an ELISA reader. The OD₄₅₀ value was fitted using a four-parameter model to calculate the EC₅₀ value of each antibody binding to PD-1.
The binding activity of the trispecific antibodies to VEGFA protein was detected by ELISA method as described in Section 2.1. The used human VEGF165-his protein was purchased from Acro, Catalog No.: VE5-H5248.

[2] = molecular target: T2, human PD-1 protein (Acro, Catalog No. PD1-H5221) (human, UniProt Q15116 25-167); assay: ELISA, plate coated with human PD-1 protein
T2 construct: Bought protein; also called human PD1-his; not shown: his tag
Procedure: as §1

[3] = molecular target: T3, human CTLA-4 protein (Acro, Catalog No. CT4-H52H9) (human, UniProt P16410 36-161); assay: ELISA, plate coated with human CTLA-4 protein
T3 construct: Bought protein

[4] = molecular target: human PD-1 protein (Acro, PD1-H5257) (human, UniProt Q15116 25-167); assay: competitive ELISA, PD-1 coated, biotin-PD-L1 as labelled ligand
Procedure: The next day, the plate was washed three times with PBS solution and blocked with 1% BSA-PBS solution at 37° C. for 1 hour. […] 100 μL of the antibody-protein mixture was added to each well of the blocked 96-well ELISA plate and incubated at 37° C. for 1 hour. After washing four times with PBST, 100 μL of Strep-HRP (BD, Catalog No. 554066) diluted 1:5000 was added to each well of the ELISA plate and incubated at 37° C. for 1 hour. After washing 4 times with PBST, TMB was used for color development. The absorbance at 450 nm and 630 nm was detected by a microplate reader, and OD450-OD630 was calculated. The fluorescence intensity was fitted using a four-parameter model, and the IC₅₀ value of the blocking activity of each antibody was calculated.

[5] = molecular target: T4, human PD-1 on the cell surface (human, UniProt Q15116 25-288); assay: flow cytometry competition, 293T-hPD-1 cells, biotin-human PD-L1
T4 construct: whole, on cells; also called cell surface PD-1
Procedure: 50 μL of antibody solution serially diluted 3-fold in FACS buffer was added in triplicate, with a starting concentration of 200 nM. After mixing, incubated at 4° C. for 60 minutes. After washing three times with FACS buffer, 100 μL/well of 1:800 diluted PE Streptavidin was added and incubated at 4° C. for 50 min. After washing three times with FACS buffer, 150 μL/well of PBS was added to resuspend the cells, and the fluorescence signal was detected on a flow cytometer (BECKMAN COULTER cytoFLEX). The four-parameter model was used to fit the binding activity and the IC₅₀ value of the blocking activity of each antibody was calculated.

[6] = molecular target: T5, human CTLA-4 on the cell surface (human, UniProt P16410 36-223); assay: flow cytometry competition, 293T-hPD-1-hCTLA-4 cells (PD-1 co-expressed), biotin-human CD80
T5 construct: whole, on cells; also called CHO-hCTLA-4 cells; CHOK1-hCTLA4 cells
Procedure: PD-1 and CTLA-4 are co-expressed on functionally exhausted T cells in the tumor microenvironment, and the expression level of PD-1 is higher than that of CTLA-4. […] 200 μL of the cells were added to a 96-well U-bottom plate, approximately 1.4×10⁵ cells/well. After centrifugation at 300 g for 5 minutes, the supernatant was discarded. […] After washing three times with FACS buffer, 100 μL/well of 1:800 diluted PE Streptavidin was added and incubated at 4° C. for 50 min. After washing three times with FACS buffer, 150 μL/well of PBS was added to resuspend the cells, and the fluorescence signal was detected on a flow cytometer (BECKMAN COULTER cytoFLEX). The binding activity was fitted using a four-parameter model, and the IC₅₀ value of the blocking activity of each antibody was calculated.

Chain of human PD-1 protein (Acro, PD1-H5257) (Q15116 25-167 limits assumed): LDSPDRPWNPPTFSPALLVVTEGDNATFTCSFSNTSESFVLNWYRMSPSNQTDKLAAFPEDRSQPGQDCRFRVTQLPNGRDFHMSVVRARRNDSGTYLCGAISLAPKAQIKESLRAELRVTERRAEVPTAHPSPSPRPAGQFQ
T2 sequence (Q15116 25-167 limits assumed): as above
T3 sequence (P16410 36-161 limits assumed): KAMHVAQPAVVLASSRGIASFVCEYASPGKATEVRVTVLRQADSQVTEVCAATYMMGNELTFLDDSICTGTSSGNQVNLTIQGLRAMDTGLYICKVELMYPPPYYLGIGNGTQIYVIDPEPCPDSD
T1 sequence (P15692 other isoform, or with tags, fused parts or gaps limits assumed): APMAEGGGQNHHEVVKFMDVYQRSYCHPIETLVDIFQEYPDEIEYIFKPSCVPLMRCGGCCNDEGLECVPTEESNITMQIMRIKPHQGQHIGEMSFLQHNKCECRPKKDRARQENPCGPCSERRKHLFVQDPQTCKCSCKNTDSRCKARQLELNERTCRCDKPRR
T5 sequence (P16410 36-223): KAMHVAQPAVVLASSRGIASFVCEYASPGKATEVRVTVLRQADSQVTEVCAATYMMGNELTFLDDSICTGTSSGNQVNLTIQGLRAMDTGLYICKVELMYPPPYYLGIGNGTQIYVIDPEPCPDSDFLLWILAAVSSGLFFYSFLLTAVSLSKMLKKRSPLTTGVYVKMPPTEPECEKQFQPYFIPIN
T4 sequence (Q15116 25-288): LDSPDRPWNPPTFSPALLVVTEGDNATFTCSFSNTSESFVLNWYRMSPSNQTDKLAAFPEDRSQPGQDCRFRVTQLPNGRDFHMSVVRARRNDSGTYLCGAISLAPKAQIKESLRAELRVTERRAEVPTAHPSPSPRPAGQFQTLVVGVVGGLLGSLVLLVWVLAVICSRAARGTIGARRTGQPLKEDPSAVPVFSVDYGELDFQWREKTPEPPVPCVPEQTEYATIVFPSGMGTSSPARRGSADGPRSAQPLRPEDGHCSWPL

Binder	EC50 [1] [nM]	EC50 [2] [nM]	EC50 [3] [nM]	IC50 [4] [nM]	IC50 [5] [nM]	IC50 [6] [nM]
HC010-F13 (trispecific antibody, human IgG4 S228P, kappa, Knob-into-hole heterodimer; light: CQ1-3/1-11 VL-kappa; One site each for PD-1 and CTLA-4; also called H010-F13) heavy 1: EVQLVESGGGLVQPGGSLRLSCAASGFTFSSYGMSWVRQAPGKGLEWVSTISGGGRDTYYPDSVKGRFTISRDNSKNTLYLQMNSLRAEDTAVYYCARQNGITWFADWGQGTLVTVSSASTKGPSVFPLAPCSRSTSESTAALGCLVKDYFPEPVTVSWNSGALTSGVHTFPAVLQSSGLYSLSSVVTVPSSSLGTKTYTCNVDHKPSNTKVDKRVESKYGPPCPPCPAPEFLGGPSVFLFPPKPKDTLMISRTPEVTCVVVDVSQEDPEVQFNWYVDGVEVHNAKTKPREEQFNSTYRVVSVLTVLHQDWLNGKEYKCKVSNKGLPSSIEKTISKAKGQPREPQVYTLPPCQEEMTKNQVSLWCLVKGFYPSDIAVEWESNGQPENNYKTTPPVLDSDGSFFLYSRLTVDKSRWQEGNVFSCSVMHEALHNHYTQKSLSLSLGAGGGGSGGGGSGGGGSGGGGSEVQLVESGGGLVQPGGSLRLSCAASGYTFTNYGMNWVRQAPGKCLEWVGWINTYTGEPTYAADFKRRFTFSLDTSKSTAYLQMNSLRAEDTAVYYCAKYPHYYGSSHWYFDVWGQGTLVTVSSGGGGSGGGGSGGGGSGGGGSDIQMTQSPSSLSASVGDRVTITCSASQDISNYLNWYQQKPGKAPKVLIYFTSSLHSGVPSRFSGSGSGTDFTLTISSLQPEDFATYYCQQYSTVPWTFGCGTKVEIK heavy 2: EVQLLESGGGLVQPGGSLRLSCAASGSIFSINHMAWYRQAPGKQRELVAGVNSRGTTNYVDSVKGRFTISRDNSKNTLYLQMNSLRAEDTAVYYCRALGGAVAAWGQGTLVTVSSGGGGSGGGGSGGGGSGGGGSESKYGPPCPPCPAPEFLGGPSVFLFPPKPKDTLMISRTPEVTCVVVDVSQEDPEVQFNWYVDGVEVHNAKTKPREEQFNSTYRVVSVLTVLHQDWLNGKEYKCKVSNKGLPSSIEKTISKAKGQPREPQVCTLPPSQEEMTKNQVSLSCAVKGFYPSDIAVEWESNGQPENNYKTTPPVLDSDGSFFLVSRLTVDKSRWQEGNVFSCSVMHEALHNRFTQKSLSLSLGAGGGGSGGGGSGGGGSGGGGSEVQLVESGGGLVQPGGSLRLSCAASGYTFTNYGMNWVRQAPGKCLEWVGWINTYTGEPTYAADFKRRFTFSLDTSKSTAYLQMNSLRAEDTAVYYCAKYPHYYGSSHWYFDVWGQGTLVTVSSGGGGSGGGGSGGGGSGGGGSDIQMTQSPSSLSASVGDRVTITCSASQDISNYLNWYQQKPGKAPKVLIYFTSSLHSGVPSRFSGSGSGTDFTLTISSLQPEDFATYYCQQYSTVPWTFGCGTKVEIK light: DIQMTQSPSSLSASVGDRVTITCRASESVDNYGISFMNWYQQKPGKAPKLLIYAASNQGSGVPSRFSGSGSGTDFTLTISSLQPEDFATYYCQQSKEVPWTFGGGTKVEIKRTVAAPSVFIFPPSDEQLKSGTASVVCLLNNFYPREAKVQWKVDNALQSGNSQESVTEQDSKDSTYSLSSTLTLSKADYEKHKVYACEVTHQGLSSPVTKSFNRGEC	0.098	0.307	0.438	1.63	69.9	0.066
HC010-F11 (trispecific antibody, human IgG4 S228P, kappa, light: CQ1-3/1-11 VL-kappa - (G4S)4 - 202F1 VHH; also called H010-F11) heavy: not shown light: DIQMTQSPSSLSASVGDRVTITCRASESVDNYGISFMNWYQQKPGKAPKLLIYAASNQGSGVPSRFSGSGSGTDFTLTISSLQPEDFATYYCQQSKEVPWTFGGGTKVEIKRTVAAPSVFIFPPSDEQLKSGTASVVCLLNNFYPREAKVQWKVDNALQSGNSQESVTEQDSKDSTYSLSSTLTLSKADYEKHKVYACEVTHQGLSSPVTKSFNRGECGGGGSGGGGSGGGGSGGGGSEVQLLESGGGLVQPGGSLRLSCAASGSIFSINHMAWYRQAPGKQRELVAGVNSRGTTNYVDSVKGRFTISRDNSKNTLYLQMNSLRAEDTAVYYCRALGGAVAAWGQGTLVTVSS	0.125	0.114	0.044	0.83	5.58	0.076

The next binders have a lower EC50 [1] than those just listed; values first:

EC50 [1] [nM]	EC50 [2] [nM]	EC50 [3] [nM]	IC50 [4] [nM]	IC50 [5] [nM]	IC50 [6] [nM]	Binder
0.081	0.085	0.059	0.433	3.7	0.055	HC010-F7 (trispecific antibody, human IgG4 S228P, kappa, light: CQ1-3/1-11 VL-kappa; also called H010-F7) heavy: not shown light: DIQMTQSPSSLSASVGDRVTITCRASESVDNYGISFMNWYQQKPGKAPKLLIYAASNQGSGVPSRFSGSGSGTDFTLTISSLQPEDFATYYCQQSKEVPWTFGGGTKVEIKRTVAAPSVFIFPPSDEQLKSGTASVVCLLNNFYPREAKVQWKVDNALQSGNSQESVTEQDSKDSTYSLSSTLTLSKADYEKHKVYACEVTHQGLSSPVTKSFNRGEC
0.087	0.712	–	2.22	326	–	HC010-F15 (trispecific antibody, human IgG4 S228P, kappa, Knob-into-hole heterodimer; light: ipilimumab VL-kappa; also called H010-F15) heavy 1: QVQLVESGGGVVQPGRSLRLSCAASGFTFSSYTMHWVRQAPGKGLEWVTFISYDGNNKYYADSVKGRFTISRDNSKNTLYLQMNSLRAEDTAIYYCARTGWLGPFDYWGQGTLVTVSSASTKGPSVFPLAPCSRSTSESTAALGCLVKDYFPEPVTVSWNSGALTSGVHTFPAVLQSSGLYSLSSVVTVPSSSLGTKTYTCNVDHKPSNTKVDKRVESKYGPPCPPCPAPEFLGGPSVFLFPPKPKDTLMISRTPEVTCVVVDVSQEDPEVQFNWYVDGVEVHNAKTKPREEQFNSTYRVVSVLTVLHQDWLNGKEYKCKVSNKGLPSSIEKTISKAKGQPREPQVYTLPPCQEEMTKNQVSLWCLVKGFYPSDIAVEWESNGQPENNYKTTPPVLDSDGSFFLYSRLTVDKSRWQEGNVFSCSVMHEALHNHYTQKSLSLSLGAGGGGSGGGGSGGGGSGGGGSEVQLVESGGGLVQPGGSLRLSCAASGYTFTNYGMNWVRQAPGKCLEWVGWINTYTGEPTYAADFKRRFTFSLDTSKSTAYLQMNSLRAEDTAVYYCAKYPHYYGSSHWYFDVWGQGTLVTVSSGGGGSGGGGSGGGGSGGGGSDIQMTQSPSSLSASVGDRVTITCSASQDISNYLNWYQQKPGKAPKVLIYFTSSLHSGVPSRFSGSGSGTDFTLTISSLQPEDFATYYCQQYSTVPWTFGCGTKVEIK heavy 2: EVQLVESGGGLVQPGGSLRLSCAASGFTFSSYGMSWVRQAPGKCLEWVSTISGGGRDTYYPDSVKGRFTISRDNSKNTLYLQMNSLRAEDTAVYYCARQNGITWFADWGQGTLVTVSSGGGGSGGGGSGGGGSGGGGSDIQMTQSPSSLSASVGDRVTITCRASESVDNYGISFMNWYQQKPGKAPKLLIYAASNQGSGVPSRFSGSGSGTDFTLTISSLQPEDFATYYCQQSKEVPWTFGCGTKVEIKGGGGSGGGGSGGGGSGGGGSESKYGPPCPPCPAPEFLGGPSVFLFPPKPKDTLMISRTPEVTCVVVDVSQEDPEVQFNWYVDGVEVHNAKTKPREEQFNSTYRVVSVLTVLHQDWLNGKEYKCKVSNKGLPSSIEKTISKAKGQPREPQVCTLPPSQEEMTKNQVSLSCAVKGFYPSDIAVEWESNGQPENNYKTTPPVLDSDGSFFLVSRLTVDKSRWQEGNVFSCSVMHEALHNRFTQKSLSLSLGAGGGGSGGGGSGGGGSGGGGSEVQLVESGGGLVQPGGSLRLSCAASGYTFTNYGMNWVRQAPGKCLEWVGWINTYTGEPTYAADFKRRFTFSLDTSKSTAYLQMNSLRAEDTAVYYCAKYPHYYGSSHWYFDVWGQGTLVTVSSGGGGSGGGGSGGGGSGGGGSDIQMTQSPSSLSASVGDRVTITCSASQDISNYLNWYQQKPGKAPKVLIYFTSSLHSGVPSRFSGSGSGTDFTLTISSLQPEDFATYYCQQYSTVPWTFGCGTKVEIK light: not shown
